Source: US20040146949A1, “Methods and compounds for disruption of CD40R/CD40L signaling in the treatment of alzheimer's disease” (priority 2002, published 2004)

Columns and labels:
Type in all cases: cell-based
[1] = test system: N2a cells overexpressing human wild-type APP-695; assay: APP CTFs by Western blot in N2a cells over-expressing APP-695; details: for alterations in APP CTFs: ligand controls for specificity, data not shown
Method: (§1) FIGS. 9a-f: CD40L modulates APP processing in vivo and in vitro. Fig. a: Brain homogenates were prepared from 12-month-old TgAPPsw/CD40L-deficient, control IgG-treated PSAPP, and anti-CD40L antibody-treated PSAPP animals. Representative lanes are shown from each mouse group. […] Fig. d: Cell lysates were prepared from N2a cells overexpressing human wild-type APP-695 and treated with 2 μg/mL of heat-inactivated CD40L (control) or CD40L protein (CD40 ligation) for 24 hours. […] Fig. f: A-β1-40 and A-β1-42 peptides were analyzed in conditioned media from human wild-type APP-695 overexpressing N2a cells by ELISA (n=3 for each condition). Data are represented as percentage of Aβ peptide secreted 24 hours after CD40 ligation relative to heat-inactivated CD40L treatment. […] Similar results were obtained with antibody 6687 or Chemicon polyclonal APP C-terminal antibody (data not shown).
(§2) We also employed an N2a cell line that stably over-expresses the human wild-type APP-695 transgene (Thinakaran, G., et al., “Metabolism of the Swedish’ amyloid precursor protein variant in neuro2a (N2a) cells, Evidence that cleavage at the ‘beta-secretase’ site occurs in the golgi apparatus,” J. Biol. Chem. 271, 9390-9397 (1996)). […] This effect could be alleviated by co-treatment with anti-CD40L antibody, as we detected anti-CD40L antibody in brains of treated PSAPP mice. To determine whether an incrreased ratio of β-CTF to α-CTF after CD40L treatment might be associated with secretion of Aβ, we measured the latter in conditioned transfected N2a cell media by ELISA. […] To confirm the specificity of this effect, we treated these cells with other TNF ligand superfamily members TNF-α or Fas ligand the additional control ligands transforming growth factor-β1 or neurotrophin.
Western blot (FIGS. 8-9). Mouse brains or cultured cells were lysed in ice-cold lysis buffer as described above, and an aliquot corresponding to 50 μg of total protein was electrophoretically separated using 16.5% Tris-tricine gels (Bio-Rad). Electrophoresed proteins were then transferred to PVDF membranes (Bio-Rad), washed in dH20, and blocked for 1 hour at ambient temperature in Tris-buffered saline (TBS) containing 5% (w/v) of non-fat dry milk. After blocking membranes were hybridized for 1 hour at ambient temperature with various antibodies against the C-terminus of APP or the N-terminus of Aβ. […] Densitometric analysis was performed using the Fluor-S Multilmager™ with Quantity One™ software (Bio-Rad). […] Further β- and γ-secretase activities were quantified in Tg APPsw and Tg APPsw/CD40L def. mice using available kits based on secretase-specific peptides conjugated to fluorgenic reporter molecules (R&D Systems, Minneapolis, Minn., USA). […]

[2] = test system: N2a cells overexpressing human wild-type APP-695; assay: secreted Aβ ELISA in conditioned media of N2a cells over-expressing APP-695; details: for alterations in secretion of Aβ species: ligand controls for specificity, data not shown
Method: as §1, §2
ELISA analysis (FIGS. 8-9). Mouse brains (Control, Tg APPsw, CD40L def., and Tg APPsw/CD40L def.) were isolated under sterile conditions on ice and placed in ice-cold lysis buffer (containing 20 mM Tris, pH 7.5, 150 mM NaCl, 1 mM EDTA, 1 mM EGTA, 1% v/v Triton X-100, 2.5 mM sodium pyrophosphate, 1 mM β-glycerolphosphate, 1 mM Na3VO4, 1 µg/mL leupeptin, and 1 mM PMSF). Brains were then sonicated on ice for approximately 3 minutes, let stand for 15 minutes at 4° C., and centrifuged at 15,000 rpm for 15 minutes. Total Aβ species were detected by acid extraction of brain homogenates in 5 M guanidine buffer (Johnson-Wood, K. et al., “Amyloid precursor protein processing and A beta42 deposition in a transgenic mouse model of Alzheimer disease,” Proc. Natl. Acad. Sci USA 94, 1550-1555 (1997)), followed by a 1:10 dilution in lysis buffer. Aβ1-40 and Aβ1-42 and total Aβ (estimated by summing Aβ1-40 and Aβ1-42 values) were quantified in these samples using the Aβ1-40 and Aβ1-42 enzyme-linked immunosorbent assay (ELISA) kits (BioSource, Camarillo, Calif., USA) in accordance with the manufacurer's instruction, except that standards were diluted such that the final concentration included 0.5 M guanidine buffer. Total protein was quantified in brain homogenates using the Bio-Rad protein assay (Bio-Rad, Richmond, Calif., USA); thus, ELISA values were reported as ng of Aβ1-x/wet g of brain. For in vitro analysis of Aβ levels, conditioned media from human APP-over-expressing N2a cells were collected and analyzed at a 1:1 dilution using the method described above, and values were rreported as percentage of Aβ1-x secreted relative to control. […]

[3] = test system: N2a cell line that stably overexpresses the human wild-type APP-751 transgene; assay: α-CTF by Western blot in N2a cells overexpressing APP-751; details: CD40L treatment over time
Excerpt: We have recently identified CD40 on neurons and neuron-like cells (including the N2a neuroblastoma cell line), and have shown that neuronal CD40 is functional, being intimately involved in neuronal development, survival, and maturation (Tan et al., “CD40 is expressed and functional on neuronal cells,” EMBO J. (2002) 21:643-52). Given our in vivo findings, we wished to determine whether CD40L could directly act on neurons to modulate APP processing. An N2a cell line was established that stably overexpresses (by ˜3 fold) the human wild-type APP-751 transgene (Xia et al., “Enhanced production and oligomerizatio of the 42-residue amyloid beta-protein by Chinese hamster ovary cells stably expressing mutant presenilins,” J. Biol. Chem. (1997) 272:7977-82). […] To confirm whether this reduction in α-CTF might be associated with amyloidogenic processing of APP, we measured secreted Aβ in conditioned media. […] Thus CD40L is able to directly promote amyloidogenic APP processing in neurons or neuron-like cells. […] As the vast majority of cases of AD are associated with accumulation of Aβ from a normal APP sequence, the observation that the processing of normal APP can be pushed towards amyloidogenicity by CD40L is of interest. […]
Western blot. […] Densitometric analysis was perfromed using the Fluor-S Multilmager™ with Quantity One™ software (Bio-Rad). […]

[4] = test system: N2a cell line that stably overexpresses the human wild-type APP-751 transgene; assay: secreted Aβ in conditioned media of N2a cells overexpressing APP-751; details: CD40L treatment over time
Excerpt: We have recently identified CD40 on neurons and neuron-like cells (including the N2a neuroblastoma cell line), and have shown that neuronal CD40 is functional, being intimately involved in neuronal development, survival, and maturation (Tan et al., “CD40 is expressed and functional on neuronal cells,” EMBO J. (2002) 21:643-52). Given our in vivo findings, we wished to determine whether CD40L could directly act on neurons to modulate APP processing. […] To confirm whether this reduction in α-CTF might be associated with amyloidogenic processing of APP, we measured secreted Aβ in conditioned media. […]
ELISA analysis. […] Total Aβ species were detected by acid extraction of brain homogenates in 5 M guanidine buffer (Johnson-Wood et al., “Amyloid precursor protein processing and A beta42 deposition in a transgenic mouse model of Alzheimer disease,” Proc. Natl. Acad. Sci. USA (1997) 94:1550-55), followed by a 1:10 dilution in lysis buffer. Aβ1-40, Aβ1-42, and total Aβ (estimated by summing Aβ1-40 and Aβ1-42 values) were quantified in these samples using the Aβ1-40 and Aβ1-42 enzyme-linked immunosorbent assay (ELISA) kits (QCB) in accordance with the manufacturer's instruction, except that standards were diluted such that the final concentration included 0.5 M guanidine buffer. […]

[5] = 24 hour treatment, 2 μg/mL, relative to heat-inactivated CD40L

TNF-α [reference compound]
alterations in APP CTFs [1]: did not observe alterations | alterations in secretion of Aβ species [2]: did not observe alterations

transforming growth factor-β1: additional control ligand [reference compound]
alterations in APP CTFs [1]: did not observe alterations | alterations in secretion of Aβ species [2]: did not observe alterations

B1: Fas ligand: other TNF ligand superfamily member used as ligand control (protein, UniProt P48023 130-281, looked up)
Tumor necrosis factor ligand …: QIGHPSPPPEKKELRKVAHLTGKSNSRSMPLEWEDTYGIVLLSGVKYKKGGLVINETGLYFVYSKVYFRGQSCNNLPLSHKVYMRNSKYPQDLVMMEGKMMSYCTTGQMWARSSYLGAVFNLTSADHLYVNVSELSLVNFEESQTFFGLYKL
alterations in APP CTFs [1]: did not observe alterations | alterations in secretion of Aβ species [2]: did not observe alterations

B2: CD40L: CD40L protein (CD40 ligation) added to N2a cells at 2 μg/mL (protein, UniProt P29965 113-261, looked up)
CD40 ligand, soluble form: MQKGDQNPQIAAHVISEASSKTTSVLQWAEKGYYTMSNNLVTLENGKQLTVKRQGLYYIYAQVTFCSNREASSQAPFIASLCLKSPGRFERILLRAANTHSSAKPCGQQSIHLGGVFELQPGASVFVNVTDPSQVSHGTGFTSFGLLKL
ratio of APP β-CTF to α-CTF ([1]; 2 μg/mL, serum-free conditions, 24 hours, versus heat-inactivated CD40L): increased ratio | α-CTF by Western blot [3]: time-dependent decrease | secreted Aβ1-40 levels in conditioned media [4]: time-dependent increase | secreted Aβ1-42 levels in conditioned media [4]: time-dependent increase | increase in secreted Aβ1-40 levels [2, 5]: ~85% | increase in secreted Aβ1-42 levels [2, 5]: ~50%
